CN114028561A (JIANGSU QYUNS BIOMEDICAL CO LTD, dated 2022)

Columns and labels:
[1] = biological target: T1, 人胸腺基质淋巴细胞生成素(Human Thymic Stromal Lymphopoietin, TSLP) (human, UniProt Q969D9 29-159); assay: SPR (Biacore T200), antibody captured on Protein A chip, human TSLP as analyte, 25℃, 1:1 model, mean of three runs
T1 construct: also called 人TSLP; hTSLP

[2] = biological target: 食蟹猴TSLP (食蟹猴 (cynomolgus monkey), UniProt A0A7N9CAT7 29-159); assay: cell-based or functional assay
[3] = biological target: 天然TSLP; assay: cell-based or functional assay
[4] = biological target: T1, 人胸腺基质淋巴细胞生成素(Human Thymic Stromal …); assay: cell-based or functional assay

Chain of 食蟹猴TSLP (A0A7N9CAT7 entry or part of it): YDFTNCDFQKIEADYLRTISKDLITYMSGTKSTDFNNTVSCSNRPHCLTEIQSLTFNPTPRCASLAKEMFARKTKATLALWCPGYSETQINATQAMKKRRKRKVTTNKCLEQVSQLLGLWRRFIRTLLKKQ

B1: QX008N(HZD8G2-57) (antibody, human IgG1, kappa, V domains shown)
VH: EVQLVESGGGLVQPGGSLRLSCAASGFSLSSYYMSWVRQAPGKGLEWVGFISYGGSAYHATWAQGRFTISKDNSKNTLYLQMNSLRAEDTAVYYCAREFRSMTYGAEWGIWGQGTLVTVSS
VL: AYQMTQSPSSVSASVGDRVTITCQASESIYDTLAWYQQKPGKAPKLLIYSASSLASGVPSRFSGSGSGTDFTLTISSLQPEDFATYYCQQGYTMPDVDKNPFGGGTKVEIKR
notes: also called 抗人TSLP单克隆抗体
Work on B1 yielded a Kd [1] of 17.5 pM, a koff [1] of 2.99e-05 s⁻¹ and a kon [1] of 1.74e+06 M⁻¹ s⁻¹. The “IC50 of inhibition of cynomolgus TSLP-induced STAT5 phosphorylation in SW756-STAT5-Luciferase reporter cells” value [2] was 0.889 ng/mL, the “IC50 of inhibition of natural TSLP-induced STAT5 phosphorylation in SW756-STAT5-Luciferase reporter cells” value [3] was 0.462 ng/mL and the “IC50 of inhibition of human TSLP-induced STAT5 phosphorylation in SW756-STAT5-Luciferase reporter cells” value [4] was 0.837 ng/mL. The “IC50 of inhibition of human TSLP-induced TARC (CCL17) release from human PBMC” value [4] was 77.1 ng/mL and the “IC50 of inhibition of human TSLP-induced TARC (CCL17) release from human whole blood” value [4] was 0.839 ng/mL.

B2: Tezepelumab (antibody, V domains shown)
VH: QMQLVESGGGVVQPGRSLRLSCAASGFTFRTYGMHWVRQAPGKGLEWVAVIWYDGSNKHYADSVKGRFTITRDNSKNTLNLQMNSLRAEDTAVYYCARAPQWELVHEAFDIWGQGTMVTVSS
VL: SYVLTQPPSVSVAPGQTARITCGGNNLGSKSVHWYQQKPGQAPVLVVYDDSDRPSWIPERFSGSNSGNTATLTISRGEAGDEADYYCQVWDSSSDHVVFGGGTKLTVLG
In the case of B2, the “IC50 of inhibition of cynomolgus TSLP-induced STAT5 phosphorylation in SW756-STAT5-Luciferase reporter cells” value [2] is reported as 1.88 ng/mL.
